Experimental data from FireProtDB.
Values joined by “and” are separate entries in the source; they are usually repeats but may differ in a detail not shown here. Identical values can stand only once.

B1: Ribonuclease, P00648 (parent)
chain: MMKMEGIALKKRLSWISVCLLVLVSAAGMLFSTAAKTETSSHKAHTEAQVINTFDGVADYLQTYHKLPDNYITKSEAQALGWVASKGNLADVAPGKSIGGDIFSNREGKLPGKSGRTWREADINYTSGFRNSDRILYSSDWLIYKTTDHYQTFTKIR
B2: Alpha-lactalbumin, P00712 (parent)
chain: MMSFVSLLLVGILFHATQAEQLTKCEVFQKLKDLKDYGGVSLPEWVCTAFHTSGYDTQAIVQNNDSTEYGLFQINNKIWCKDDQNPHSRNICNISCDKFLDDDLTDDIVCAKKILDKVGINYWLAHKALCSEKLDQWLCEKL
B3: Amicyanin, P22364 (parent)
chain: MISATKIRSCLAACVLAAFGATGALADKATIPSESPFAAAEVADGAIVVDIAKMKYETPELHVKVGDTVTWINREAMPHNVHFVAGVLGEAALKGPMMKKEQAYSLTFTEAGTYDYHCTPHPFMRGKVVVE
B4: Phosphocarrier protein HPr, P08877 (parent)
chain: MAQKTFKVTADSGIHARPATVLVQTASKYDADVNLEYNGKTVNLKSIMGVMSLGIAKGAEITISASGADENDALNALEETMKSEGLGE
B5: T-cell surface antigen CD2, P08921 (parent)
chain: MRCKFLGSFFLLFSLSSKGADCRDSGTVWGALGHGINLNIPNFQMTDDIDEVRWERGSTLVAEFKRKMKPFLKSGAFEILANGDLKIKNLTRDDSGTYNVTVYSTNGTRILNKALDLRILEMVSKPMIYWECSNATLTCEVLEGTDVELKLYQGKEHLRSLRQKTMSYQWTNLRAPFKCKAVNRVSQESEMEVVNCPEKGLPLYLIVGVSAGGLLLVFFGALFIFCICKRKKRNRRRKGEELEIKASRMSTVERGPKPHSTQASAPASQNPVASQAPPPPGHHLQTPGHRPLPPSHRNREHQPKKRPPPSGTQVHQQKGPPLPRPRVQPKPPCGSGDVSLPPPN
B6: SNARE-associated protein Snapin, O95295 (parent)
chain: MAGAGSAAVSGAGTPVAGPTGRDLFAEGLLEFLRPAVQQLDSHVHAVRESQVELREQIDNLATELCRINEDQKVALDLDPYVKKLLNARRRVVLVNNILQNAQERLRRLNHSVAKETARRRAMLDSGIYPPGSPGK
B7: Holocytochrome-c synthase, P06182 (parent)
chain: MGWFWADQKTTGKDIGGAAVSSMSGCPVMHESSSSSPPSSECPVMQGDNDRINPLNNMPELAASKQPGQKMDLPVDRTISSIPKSPDSNEFWEYPSPQQMYNAMVRKGKIGGSGEVAEDAVESMVQVHNFLNEGCWQEVLEWEKPHTDESHVQPKLLKFMGKPGVLSPRARWMHLCGLLFPSHFSQELPFDRHDWIVLRGERKAEQQPPTFKEVRYVLDFYGGPDDENGMPTFHVDVRPALDSLDNAKDRMTRFLDRMISGPSSSSSAP
B8: Malate dehydrogenase, P80040 (parent)
chain: MRKKISIIGAGFVGSTTAHWLAAKELGDIVLLDFVEGVPQGKALDLYEASPIEGFDVRVTGTNNYADTANSDVIVVTSGAPRKPGMSREDLIKVNADITRACISQAAPLSPNAVIIMVNNPLDAMTYLAAEVSGFPKERVIGQAGVLDAARYRTFIAMEAGVSVEDVQAMLMGGHGDEMVPLPRFSTISGIPVSEFIAPDRLAQIVERTRKGGGEIVNLLKTGSAYYAPAAATAQMVEAVLKDKKRVMPVAAYLTGQYGLNDIYFGVPVILGAGGVEKILELPLNEEEMALLNASAKAVRATLDTLKSL
B9: NADP-dependent isopropanol dehydrogenase, P25984 (parent)
chain: MKGFAMLGINKLGWIEKERPVAGSYDAIVRPLAVSPCTSDIHTVFEGALGDRKNMILGHEAVGEVVEVGSEVKDFKPGDRVIVPCTTPDWRSLEVQAGFQQHSNGMLAGWKFSNFKDGVFGEYFHVNDADMNLAILPKDMPLENAVMITDMMTTGFHGAELADIQMGSSVVVIGIGAVGLMGIAGAKLRGAGRIIGVGSRPICVEAAKFYGATDILNYKNGHIVDQVMKLTNGKGVDRVIMAGGGSETLSQAVSMVKPGGIISNINYHGSGDALLIPRVEWGCGMAHKTIKGGLCPGGRLRAEMLRDMVVYNRVDLSKLVTHVYHGFDHIEEALLLMKDKPKDLIKAVVIL
B10: N-(5'-phosphoribosyl)anthranilate isomerase, P00912 (parent)
chain: MSVINFTGSSGPLVKVCGLQSTEAAECALDSDADLLGIICVPNRKRTIDPVIARKISSLVKAYKNSSGTPKYLVGVFRNQPKEDVLALVNDYGIDIVQLHGDESWQEYQEFLGLPVIKRLVFPKDCNILLSAASQKPHSFIPLFDSEAGGTGELLDWNSISDWVGRQESPESLHFMLAGGLTPENVGDALRLNGVIGVDVSGGVETNGVKDSNKIANFVKNAKK
B11: Copper-transporting ATPase 2, P35670 (parent)
chain: MPEQERQITAREGASRKILSKLSLPTRAWEPAMKKSFAFDNVGYEGGLDGLGPSSQVATSTVRILGMTCQSCVKSIEDRISNLKGIISMKVSLEQGSATVKYVPSVVCLQQVCHQIGDMGFEASIAEGKAASWPSRSLPAQEAVVKLRVEGMTCQSCVSSIEGKVRKLQGVVRVKVSLSNQEAVITYQPYLIQPEDLRDHVNDMGFEAAIKSKVAPLSLGPIDIERLQSTNPKRPLSSANQNFNNSETLGHQGSHVVTLQLRIDGMHCKSCVLNIEENIGQLLGVQSIQVSLENKTAQVKYDPSCTSPVALQRAIEALPPGNFKVSLPDGAEGSGTDHRSSSSHSPGSPPRNQVQGTCSTTLIAIAGMTCASCVHSIEGMISQLEGVQQISVSLAEGTATVLYNPSVISPEELRAAIEDMGFEASVVSESCSTNPLGNHSAGNSMVQTTDGTPTSVQEVAPHTGRLPANHAPDILAKSPQSTRAVAPQKCFLQIKGMTCASCVSNIERNLQKEAGVLSVLVALMAGKAEIKYDPEVIQPLEIAQFIQDLGFEAAVMEDYAGSDGNIELTITGMTCASCVHNIESKLTRTNGITYASVALATSKALVKFDPEIIGPRDIIKIIEEIGFHASLAQRNPNAHHLDHKMEIKQWKKSFLCSLVFGIPVMALMIYMLIPSNEPHQSMVLDHNIIPGLSILNLIFFILCTFVQLLGGWYFYVQAYKSLRHRSANMDVLIVLATSIAYVYSLVILVVAVAEKAERSPVTFFDTPPMLFVFIALGRWLEHLAKSKTSEALAKLMSLQATEATVVTLGEDNLIIREEQVPMELVQRGDIVKVVPGGKFPVDGKVLEGNTMADESLITGEAMPVTKKPGSTVIAGSINAHGSVLIKATHVGNDTTLAQIVKLVEEAQMSKAPIQQLADRFSGYFVPFIIIMSTLTLVVWIVIGFIDFGVVQRYFPNPNKHISQTEVIIRFAFQTSITVLCIACPCSLGLATPTAVMVGTGVAAQNGILIKGGKPLEMAHKIKTVMFDKTGTITHGVPRVMRVLLLGDVATLPLRKVLAVVGTAEASSEHPLGVAVTKYCKEELGTETLGYCTDFQAVPGCGIGCKVSNVEGILAHSERPLSAPASHLNEAGSLPAEKDAVPQTFSVLIGNREWLRRNGLTISSDVSDAMTDHEMKGQTAILVAIDGVLCGMIAIADAVKQEAALAVHTLQSMGVDVVLITGDNRKTARAIATQVGINKVFAEVLPSHKVAKVQELQNKGKKVAMVGDGVNDSPALAQADMGVAIGTGTDVAIEAADVVLIRNDLLDVVASIHLSKRTVRRIRINLVLALIYNLVGIPIAAGVFMPIGIVLQPWMGSAAMAASSVSVVLSSLQLKCYKKPDLERYEAQAHGHMKPLTASQVSVHIGMDDRWRDSPRATPWDQVSYVSQVSLSSLTSDKPSRHSAAADDDGDKWSLLLNGRDEEQYI

Variants of: B1
Settings: Bacillus amyloliquefaciens; pH 6.3; 25 °C; Urea; Fluorescence; MES 10 mM; reversible: yes; structure 1BNI; whole UniProt chain shown

Variant | ddG of mutation (higher = less stable) | denaturant m value | denaturant midpoint (higher = more stable) | unfolding free energy
S75E | -0.61 kcal/mol | 1.99 kcal/mol/M | 4.74 M | 9.44 kcal/mol

Same assay, conditions: Bacillus amyloliquefaciens; pH 6.3; 25 °C; Urea; Fluorescence; MES 1 M; structure 1BNI; whole UniProt chain shown

Variant | ddG of mutation (higher = less stable) | unfolding free energy
A79G | 0.91 kcal/mol | 7.99 kcal/mol
K74A | -0.53 kcal/mol | 9.43 kcal/mol

Same assay, conditions: Bacillus amyloliquefaciens; pH 6.3; 25 °C; Urea; Fluorescence; MES 50 mM; reversible: yes; structure 1BNI; whole UniProt chain shown

Variant | ddG of mutation (higher = less stable)
T63S | 1.87 kcal/mol
T73A | 2.14 kcal/mol
I143A | 3.52 kcal/mol
I143V | 0.98 kcal/mol

Same assay, conditions: Bacillus amyloliquefaciens; pH 6.3; 25 °C; Thermal; Fluorescence; MES 50 mM; structure 1BNI; whole UniProt chain shown

Variant | ddG of mutation (higher = less stable) | unfolding free energy
D101A | 3.3 kcal/mol | 6.9 kcal/mol
D101N | 2.6 kcal/mol | 7.6 kcal/mol
D122N | 5 kcal/mol | 5.2 kcal/mol

Same assay, conditions: Bacillus amyloliquefaciens; pH 6.3; 25 °C; Urea; Fluorescence; MES 1.00 M; NaCl 613 mM; reversible: yes; structure 1BNI; whole UniProt chain shown

Variant | ddG of mutation (higher = less stable)
Y64A | 2.26 kcal/mol
T63S Y64A | 2.39 kcal/mol

Same assay, conditions: Bacillus amyloliquefaciens; pH 6.3; 25 °C; Urea; Fluorescence; MES 50 mM; structure 1BNI; whole UniProt chain shown

Variant | ddG of mutation (higher = less stable)
E120F | 2.1 kcal/mol
E120W | 2.2 kcal/mol
E120Q | 2.7 kcal/mol

Same assay, conditions: Bacillus amyloliquefaciens; pH 6.3; 25 °C; Urea; Fluorescence; MES 19.3 mM; reversible: yes; structure 1BNI; whole UniProt chain shown

Variant | ddG of mutation (higher = less stable) | denaturant midpoint (higher = more stable) | unfolding free energy
I143A | 4 kcal/mol | 2.24 M | 6.5 kcal/mol

Same assay, conditions: Bacillus amyloliquefaciens; pH 6.15; 25 °C; Urea; Fluorescence; MES 19.3 mM; reversible: yes; structure 1BNI; whole UniProt chain shown

Variant | ddG of mutation (higher = less stable) | denaturant midpoint (higher = more stable) | unfolding free energy
F54L | 4.1 kcal/mol | 2.42 M | 6.4 kcal/mol

Same assay, conditions: Bacillus amyloliquefaciens; pH 2.7; Thermal; DSC; glycine-HCl 20 mM; reversible: yes; structure 1BNI; whole UniProt chain shown

Variant | Tm
S132C H149C | 47.4 °C

Variants of: B2
Settings: Capra hircus; pH 7; 25 °C; Thermal; CD; sodium cacodylate 50 mM; CaCl2 1 mM; structure 1HFY; whole UniProt chain shown

Variant | ddG of mutation (higher = less stable)
T48I | -1.37 kcal/mol
T48V | -1.86 kcal/mol

Variants of: B3
Settings: Paracoccus denitrificans; pH 7.5; Thermal; absorbance; Potassium Phosphate Buffer 10 mM; structure 2OV0; whole UniProt chain shown

Variant | Tm
W71Y | 53.9 °C

Variants of: B4
Settings: Bacillus subtilis (strain 168); pH 7; 30 °C; Urea; CD; Potassium phosphate 50 mM; reversible: yes; structure 2HPR; whole UniProt chain shown

Variant | ddG of mutation (higher = less stable) | denaturant midpoint (higher = more stable)
S46D | -0.74 kcal/mol | 4.63 M

Same assay, conditions: Bacillus subtilis (strain 168); pH 7; 73.6 °C; Thermal; CD; Potassium phosphate 50 mM; reversible: yes; structure 2HPR; whole UniProt chain shown

Variant | ddG of mutation (higher = less stable)
S46D | -0.7 kcal/mol

Variants of: B5
Settings: Rattus norvegicus; pH 5; 25 °C; Urea; Fluorescence; Sodium acetate 50 mM; reversible: yes; structure 1HNG; whole UniProt chain shown

Variant | ddG of mutation (higher = less stable)
Y98F | -1.49 kcal/mol

Variants of: B6
Settings: Homo sapiens; pH 7; Thermal; absorbance; Phosphate buffer; transition: 2; reversible: yes; whole UniProt chain shown

Variant | Tm | change of melting temperature, mutant - wild type (higher = more stable)
C66S | 72.4 °C | 1.4 °C

Same assay, conditions: Homo sapiens; pH 7.4; Thermal; CD; Tris 50 mM; whole UniProt chain shown

Variant | Tm | change of melting temperature, mutant - wild type (higher = more stable)
C66S | 60.1 °C | 2.2 °C

Variants of: B7
Settings: Saccharomyces cerevisiae (strain ATCC 204508 / S288c); pH 6; Thermal; Absorbance; Sodium phosphate 100 mM; reversible: yes; whole UniProt chain shown

Variant | Tm | change of melting temperature, mutant - wild type (higher = more stable) | heat capacity change of unfolding | unfolding enthalpy (van 't Hoff)
N57I | 63.7 °C | 17.2 °C | 2 kcal/mol/K | 109 kcal/mol

Variants of: B8
Settings: Chloroflexus aurantiacus (strain ATCC 29366 / DSM 635 / J-10-fl); pH 7.5; Thermal; CD; potassium phosphate 10 mM; reversible: No; structure 1GUY; whole UniProt chain shown

Variant | Tm | change of melting temperature, mutant - wild type (higher = more stable)
T187C | 82.8 °C | 15 °C

Variants of: B9
Settings: Clostridium beijerinckii; pH 6.8; Thermal; CD; Na/K phosphate 50 mM; structure 1KEV; whole UniProt chain shown

Variant | Tm | change of melting temperature, mutant - wild type (higher = more stable)
Q165E M304R | 70.4 °C | 5.3 °C
V224E S254K | 70.5 °C | 5.4 °C
V224E S254K Q165E M304R | 73.7 °C | 8.6 °C
V224E S254K Q165E M304R R238A | 73.6 °C | 8.5 °C

Variants of: B10
Settings: Saccharomyces cerevisiae (strain ATCC 204508 / S288c); pH 6.5; 23 °C; GdnHCl; CD; Potassium phosphate 0.05 M; reversible: yes; whole UniProt chain shown

Variant | ddG of mutation (higher = less stable)
S212C | 1 kcal/mol

Variants of: B11
Settings: Homo sapiens; pH 7; 20 °C; Urea; CD; NaH2PO4 50 mM; transition: 2; reversible: No; structure 2ARF; whole UniProt chain shown

Variant | ddG of mutation (higher = less stable) | denaturant midpoint (higher = more stable) | unfolding free energy
H1069Q | 0.96 kcal/mol | 4.7 M and 4 M | 5.74 kcal/mol and 6.21 kcal/mol
